The experiment deals with MARV Musoke NP tagged with FLAG at the N-terminus and His6 at the C-terminus (Wt) (Marburg virus Musoke-80, UniProt P27588). The experiment can be described thus: far-Western, overlay or dot blot. Particulars: one partner purified.
MARV Musoke NP tagged with FLAG at the N-terminus and His6 at the C-terminus (Wt), sequence (P27588 whole entry): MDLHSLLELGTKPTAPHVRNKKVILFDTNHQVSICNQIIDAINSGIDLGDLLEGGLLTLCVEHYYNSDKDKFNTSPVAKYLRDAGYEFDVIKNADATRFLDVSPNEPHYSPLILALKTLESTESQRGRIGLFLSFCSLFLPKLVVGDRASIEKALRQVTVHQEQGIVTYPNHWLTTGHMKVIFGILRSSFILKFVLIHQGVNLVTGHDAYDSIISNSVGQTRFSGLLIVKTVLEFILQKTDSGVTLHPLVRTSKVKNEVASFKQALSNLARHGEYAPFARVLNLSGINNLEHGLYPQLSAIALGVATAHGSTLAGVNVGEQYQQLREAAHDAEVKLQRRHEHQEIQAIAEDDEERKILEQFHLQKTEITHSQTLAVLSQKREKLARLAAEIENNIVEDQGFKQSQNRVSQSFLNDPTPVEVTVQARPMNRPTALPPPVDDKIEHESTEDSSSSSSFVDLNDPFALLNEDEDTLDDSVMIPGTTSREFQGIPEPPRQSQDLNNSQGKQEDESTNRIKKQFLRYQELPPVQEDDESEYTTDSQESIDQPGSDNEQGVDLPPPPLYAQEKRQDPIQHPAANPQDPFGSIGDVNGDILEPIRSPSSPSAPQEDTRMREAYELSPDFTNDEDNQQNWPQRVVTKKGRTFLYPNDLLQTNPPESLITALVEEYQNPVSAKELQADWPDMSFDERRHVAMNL

B1: sdAb D–alkaline phosphatase fusion protein (pecan16) (VHH)
VHH: KVKLQESGGGTVQAGGSLRLSCKASGFTFRSSAMGWYRRAPGQHRIFVGSFSRNEFKYADFAQGRFTISRDNAKNTVSLQMNHVIPEDTAVYYCHEDPYGMESLRYWGQGTQVTVSS
Turning to B1, the binding result was “binds”.

These data come from publication PMC5630700 (Frontiers in Immunology, 2017).
